Laboratory results taken from paper PMC12499500.

Target: drosophila GABAB2 subunit, EM construct (residues 24–790) (Drosophila melanogaster) (UniProt Q9BML6)
Sequence (Q9BML6 entry or part of it): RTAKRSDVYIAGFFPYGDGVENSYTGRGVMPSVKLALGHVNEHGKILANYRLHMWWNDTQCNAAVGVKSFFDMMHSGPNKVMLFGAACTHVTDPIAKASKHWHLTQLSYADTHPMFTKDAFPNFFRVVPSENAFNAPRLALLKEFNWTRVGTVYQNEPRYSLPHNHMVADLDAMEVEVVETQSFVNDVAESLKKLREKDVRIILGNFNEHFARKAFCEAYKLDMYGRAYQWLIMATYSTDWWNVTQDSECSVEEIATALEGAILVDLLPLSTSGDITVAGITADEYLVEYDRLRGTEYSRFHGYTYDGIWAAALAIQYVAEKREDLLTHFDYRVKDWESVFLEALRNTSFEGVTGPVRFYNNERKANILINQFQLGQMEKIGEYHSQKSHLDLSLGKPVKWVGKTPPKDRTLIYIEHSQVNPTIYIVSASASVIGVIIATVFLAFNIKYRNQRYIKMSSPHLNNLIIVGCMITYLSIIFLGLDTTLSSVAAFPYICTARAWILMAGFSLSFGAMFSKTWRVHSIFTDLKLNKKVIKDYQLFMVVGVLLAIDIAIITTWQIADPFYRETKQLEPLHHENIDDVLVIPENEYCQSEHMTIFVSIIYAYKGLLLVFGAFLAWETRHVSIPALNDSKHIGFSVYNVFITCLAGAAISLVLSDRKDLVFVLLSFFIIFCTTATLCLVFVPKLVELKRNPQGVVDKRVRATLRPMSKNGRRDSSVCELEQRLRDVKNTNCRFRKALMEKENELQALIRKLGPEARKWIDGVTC

For “dGB1^I (V658L) (from UniProt Q9BML7 1-840) (receptor)”, the basal IP1 accumulation (constitutive activity), HEK293 cells co-transfected with the dGB1 mutant and wild-type dGB2, against the wild-type receptor (% increase in IP1 accumulation) was 50.

“dGB1^I-II (V658L, F659L) (from UniProt Q9BML7 1-840) (receptor)” showed a basal IP1 accumulation (constitutive activity), HEK293 cells co-transfected with the dGB1 mutant and wild-type dGB2, against dGB1^III (% increase in IP1 accumulation) of 17.

“dGB1^I-II-III (V658L, F659L, E666A, H566A) (from UniProt Q9BML7 1-840) (receptor)” gave a basal IP1 accumulation (constitutive activity), HEK293 cells co-transfected with the dGB1 mutant and wild-type dGB2, against dGB1^III (% increase in IP1 accumulation) of 22.

“dGB1^II (F659L) (from UniProt Q9BML7 1-840) (receptor)” showed a basal IP1 accumulation (constitutive activity), HEK293 cells co-transfected with the dGB1 mutant and wild-type dGB2, against the wild-type receptor (% increase in IP1 accumulation) of 66.

Work on “dGB1^III (E666A and H566A) (from UniProt Q9BML7 1-840) (receptor)” yielded a basal IP1 accumulation (constitutive activity), HEK293 cells co-transfected with the dGB1 mutant and wild-type dGB2, against the wild-type receptor (% increase in IP1 accumulation) of 59.
